Measured values as given in patent US20260001947A1.

Target: human PD-L1 extracellular domain protein displayed on the membrane of MC38-PD-L1 cells (human) (UniProt Q9NZQ7)
Assay: flow cytometry on MC38-PD-L1 cells, directly PE-labelled antibody, 0.5 µl; Blank-PE shows 0.13% in the same gate

Sequence of human PD-L1 extracellular domain protein displayed on the membrane of MC38-PD-L1 cells (human) (Q9NZQ7 19-238): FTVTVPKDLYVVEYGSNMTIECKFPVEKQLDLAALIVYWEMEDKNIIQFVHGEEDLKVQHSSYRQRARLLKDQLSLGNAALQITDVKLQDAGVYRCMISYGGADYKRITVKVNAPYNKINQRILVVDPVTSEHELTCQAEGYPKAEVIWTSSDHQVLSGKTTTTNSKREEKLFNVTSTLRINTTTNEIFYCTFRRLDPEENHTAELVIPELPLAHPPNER

% of cells in gate M6-2: 99.4%
Substance: PE anti-human PD-L1 (BioLegend, clone number: 29E-2A3) (antibody)
